Measurements taken from the supplement of paper PMC10065799, “High-throughput profiling of sequence recognition by tyrosine kinases and SH2 domains using bacterial peptide display” (eLife, 2023).

target: Fes (UniProt P07332); test: phosphorylation enrichment, bacterial display (enrichment ratio); higher = better substrate or ligand; peptides without Tyr show the background
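Wherever SH2 binding enrichment of the phosphorylated peptide, bacterial display is given: peptide library displayed on the E. coli surface as eCPX fusions, selected cells deep-sequenced, score is each peptide's frequency after selection divided by its frequency in the input.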
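Wherever phosphorylation enrichment, bacterial display is given: 11-residue human phosphosite peptides and single-mutation variants displayed on the E. coli surface, counted by deep sequencing, each peptide's frequency after selection divided by its frequency in the unselected input library; frequency after pTyr selection over input frequency; kinase dosed for 20-30% of maximal phosphorylation in three min.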

Chain of Fes (P07332 whole entry, looked up, the tested form may be a part): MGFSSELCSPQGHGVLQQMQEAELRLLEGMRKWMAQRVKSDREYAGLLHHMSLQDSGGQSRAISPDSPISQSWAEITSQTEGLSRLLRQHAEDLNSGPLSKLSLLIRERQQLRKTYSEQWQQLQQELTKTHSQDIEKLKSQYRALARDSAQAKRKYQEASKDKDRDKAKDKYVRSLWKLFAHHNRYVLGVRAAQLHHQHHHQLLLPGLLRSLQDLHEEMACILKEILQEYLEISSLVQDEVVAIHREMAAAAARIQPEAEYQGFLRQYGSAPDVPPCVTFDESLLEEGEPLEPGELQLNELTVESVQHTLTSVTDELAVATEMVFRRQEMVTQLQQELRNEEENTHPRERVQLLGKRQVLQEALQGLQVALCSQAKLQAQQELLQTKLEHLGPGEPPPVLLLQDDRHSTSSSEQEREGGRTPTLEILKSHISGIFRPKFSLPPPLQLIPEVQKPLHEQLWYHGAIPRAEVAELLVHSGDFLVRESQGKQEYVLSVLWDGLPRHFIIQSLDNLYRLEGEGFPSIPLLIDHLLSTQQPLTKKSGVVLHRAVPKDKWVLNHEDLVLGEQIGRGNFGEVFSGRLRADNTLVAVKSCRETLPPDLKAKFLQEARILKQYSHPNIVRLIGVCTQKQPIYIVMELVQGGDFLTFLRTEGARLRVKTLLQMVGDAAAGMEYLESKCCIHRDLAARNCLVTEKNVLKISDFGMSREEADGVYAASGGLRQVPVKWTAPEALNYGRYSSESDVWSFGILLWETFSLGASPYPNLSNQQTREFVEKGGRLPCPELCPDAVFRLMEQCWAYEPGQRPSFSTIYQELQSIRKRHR

Sequence | phosphorylation enrichment
NSRFTCKLEVK [USH2A_Y3747_Y3747C_YF] | 1.66
PCLLRYLQLDF [ASB10_Y457_R453C] | 1.72
SLKAFYGEDAK [ALDH3A1_Y272_E270A] | 0.724
RFLRGYQQDAY [HLA-A_Y137_R138Q] | 0.81
HTLIKYTDGDQ [PUS7L_Y94] | 1.76
DPGVSYCTREE [PDHA1_Y301_R302C] | 1.12
DNAYQYMLTDR [MYH7_Y164] | 0.859
RVAFQYGVTDL [MYBPC3_Y340_I336V] | 1.27
RKGIRYLTSGL [PIGA_Y82] | 0.668
FEEDSYSHIMA [FDPS_Y388_YF] | 1.23
EQFELHCEMGS [CBL_Y371_Y371H_YF] | 1.49
CTTIHYNHMCN [TP53_Y234_Y236H] | 0.796
AKNKDYMSIIR [GNE_Y197] | 0.677
LIPIKYKAMKK [MYD88_Y257] | 0.96
INPIIYAFVGG [CCR5_Y297_E302G] | 2.1
NTQRPHFKGGG [TYROBP_Y111_Y111H_YF] | 0.735

target: EPHB2 (UniProt P29323); test: as above
Sequence (P29323 whole entry, looked up): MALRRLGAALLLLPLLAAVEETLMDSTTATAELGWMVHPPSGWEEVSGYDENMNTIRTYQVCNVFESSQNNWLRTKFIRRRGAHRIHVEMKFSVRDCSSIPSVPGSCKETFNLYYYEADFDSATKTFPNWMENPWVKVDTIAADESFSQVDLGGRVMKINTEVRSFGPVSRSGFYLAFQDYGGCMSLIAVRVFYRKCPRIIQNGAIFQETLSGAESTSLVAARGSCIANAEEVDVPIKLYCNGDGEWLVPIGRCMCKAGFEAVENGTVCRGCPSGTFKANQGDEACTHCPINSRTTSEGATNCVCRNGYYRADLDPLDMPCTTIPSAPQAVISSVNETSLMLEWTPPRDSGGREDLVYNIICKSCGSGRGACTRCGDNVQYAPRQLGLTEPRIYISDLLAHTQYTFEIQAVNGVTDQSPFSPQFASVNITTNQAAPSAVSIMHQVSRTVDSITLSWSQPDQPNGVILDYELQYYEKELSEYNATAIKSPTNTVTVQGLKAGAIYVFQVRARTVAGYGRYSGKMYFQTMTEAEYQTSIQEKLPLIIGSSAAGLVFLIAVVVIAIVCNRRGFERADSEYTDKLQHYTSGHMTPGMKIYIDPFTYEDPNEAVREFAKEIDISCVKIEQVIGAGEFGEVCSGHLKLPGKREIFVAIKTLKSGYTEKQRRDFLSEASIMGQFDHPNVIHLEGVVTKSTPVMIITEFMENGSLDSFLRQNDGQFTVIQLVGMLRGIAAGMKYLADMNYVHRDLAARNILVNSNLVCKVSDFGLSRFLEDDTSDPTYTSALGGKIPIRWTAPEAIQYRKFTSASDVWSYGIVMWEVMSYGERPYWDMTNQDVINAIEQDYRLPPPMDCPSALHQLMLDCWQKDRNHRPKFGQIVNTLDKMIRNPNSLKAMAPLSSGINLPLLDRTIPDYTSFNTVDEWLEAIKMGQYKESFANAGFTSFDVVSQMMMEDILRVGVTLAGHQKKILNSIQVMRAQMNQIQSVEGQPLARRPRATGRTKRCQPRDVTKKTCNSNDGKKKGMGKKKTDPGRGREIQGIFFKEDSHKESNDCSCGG

Sequence | phosphorylation enrichment
NSRFTCKLEVK [USH2A_Y3747_Y3747C_YF] | 0.618
PCLLRYLQLDF [ASB10_Y457_R453C] | 0.538
SLKAFYGEDAK [ALDH3A1_Y272_E270A] | 0.369
RFLRGYQQDAY [HLA-A_Y137_R138Q] | 0.535
HTLIKYTDGDQ [PUS7L_Y94] | 0.982
DPGVSYCTREE [PDHA1_Y301_R302C] | 0.749
DNAYQYMLTDR [MYH7_Y164] | 0.461
RVAFQYGVTDL [MYBPC3_Y340_I336V] | 0.827
RKGIRYLTSGL [PIGA_Y82] | 0.437
FEEDSYSHIMA [FDPS_Y388_YF] | 0.593
EQFELHCEMGS [CBL_Y371_Y371H_YF] | 0.623
CTTIHYNHMCN [TP53_Y234_Y236H] | 0.456
AKNKDYMSIIR [GNE_Y197] | 0.553
LIPIKYKAMKK [MYD88_Y257] | 0.384
INPIIYAFVGG [CCR5_Y297_E302G] | 9.68
NTQRPHFKGGG [TYROBP_Y111_Y111H_YF] | 0.632

tested on: AncSZ; test: as above

Sequence | phosphorylation enrichment
NSRFTCKLEVK [USH2A_Y3747_Y3747C_YF] | 1.45
PCLLRYLQLDF [ASB10_Y457_R453C] | 1.5
SLKAFYGEDAK [ALDH3A1_Y272_E270A] | 0.603
RFLRGYQQDAY [HLA-A_Y137_R138Q] | 0.894
HTLIKYTDGDQ [PUS7L_Y94] | 1.41
DPGVSYCTREE [PDHA1_Y301_R302C] | 1.12
DNAYQYMLTDR [MYH7_Y164] | 1.23
RVAFQYGVTDL [MYBPC3_Y340_I336V] | 1.16
RKGIRYLTSGL [PIGA_Y82] | 0.698
FEEDSYSHIMA [FDPS_Y388_YF] | 1.33
EQFELHCEMGS [CBL_Y371_Y371H_YF] | 1.17
CTTIHYNHMCN [TP53_Y234_Y236H] | 0.692
AKNKDYMSIIR [GNE_Y197] | 0.585
LIPIKYKAMKK [MYD88_Y257] | 0.388
INPIIYAFVGG [CCR5_Y297_E302G] | 1.14
NTQRPHFKGGG [TYROBP_Y111_Y111H_YF] | 0.447

target: EPHB1 (UniProt P54762); test: as above
Sequence (P54762 whole entry, looked up): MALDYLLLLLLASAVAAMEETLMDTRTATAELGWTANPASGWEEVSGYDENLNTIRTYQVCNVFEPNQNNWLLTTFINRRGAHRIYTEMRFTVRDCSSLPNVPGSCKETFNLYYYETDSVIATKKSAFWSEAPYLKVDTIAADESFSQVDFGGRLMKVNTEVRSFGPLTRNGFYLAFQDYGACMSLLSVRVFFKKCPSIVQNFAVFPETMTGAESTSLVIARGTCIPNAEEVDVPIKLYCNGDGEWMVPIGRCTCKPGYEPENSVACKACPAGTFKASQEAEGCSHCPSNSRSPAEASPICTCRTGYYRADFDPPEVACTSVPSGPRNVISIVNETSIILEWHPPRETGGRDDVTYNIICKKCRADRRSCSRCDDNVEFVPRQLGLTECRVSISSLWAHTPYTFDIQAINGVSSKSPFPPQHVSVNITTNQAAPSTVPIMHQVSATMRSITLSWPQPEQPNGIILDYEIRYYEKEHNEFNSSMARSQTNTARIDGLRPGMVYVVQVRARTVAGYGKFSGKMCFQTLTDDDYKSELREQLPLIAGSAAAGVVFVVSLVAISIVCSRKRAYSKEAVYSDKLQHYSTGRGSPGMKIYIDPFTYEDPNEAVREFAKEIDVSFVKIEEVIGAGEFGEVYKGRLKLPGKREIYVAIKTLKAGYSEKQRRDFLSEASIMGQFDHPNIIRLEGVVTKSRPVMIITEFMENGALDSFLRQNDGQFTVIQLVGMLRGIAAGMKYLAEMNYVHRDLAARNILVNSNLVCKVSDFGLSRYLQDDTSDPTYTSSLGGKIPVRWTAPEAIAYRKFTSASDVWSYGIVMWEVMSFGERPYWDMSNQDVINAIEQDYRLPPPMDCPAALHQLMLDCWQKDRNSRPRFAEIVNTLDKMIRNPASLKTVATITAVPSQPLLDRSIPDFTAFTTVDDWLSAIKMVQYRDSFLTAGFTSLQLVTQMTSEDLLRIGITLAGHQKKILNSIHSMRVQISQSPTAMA

Sequence | phosphorylation enrichment
NSRFTCKLEVK [USH2A_Y3747_Y3747C_YF] | 0.629
PCLLRYLQLDF [ASB10_Y457_R453C] | 0.833
SLKAFYGEDAK [ALDH3A1_Y272_E270A] | 0.395
RFLRGYQQDAY [HLA-A_Y137_R138Q] | 0.519
HTLIKYTDGDQ [PUS7L_Y94] | 0.819
DPGVSYCTREE [PDHA1_Y301_R302C] | 0.643
DNAYQYMLTDR [MYH7_Y164] | 0.61
RVAFQYGVTDL [MYBPC3_Y340_I336V] | 0.461
RKGIRYLTSGL [PIGA_Y82] | 0.533
FEEDSYSHIMA [FDPS_Y388_YF] | 0.551
EQFELHCEMGS [CBL_Y371_Y371H_YF] | 0.71
CTTIHYNHMCN [TP53_Y234_Y236H] | 0.445
AKNKDYMSIIR [GNE_Y197] | 0.851
LIPIKYKAMKK [MYD88_Y257] | 0.55
INPIIYAFVGG [CCR5_Y297_E302G] | 11.5
NTQRPHFKGGG [TYROBP_Y111_Y111H_YF] | 0.378

target: Fyn (UniProt P06241); test: as above
Sequence (P06241 whole entry, looked up): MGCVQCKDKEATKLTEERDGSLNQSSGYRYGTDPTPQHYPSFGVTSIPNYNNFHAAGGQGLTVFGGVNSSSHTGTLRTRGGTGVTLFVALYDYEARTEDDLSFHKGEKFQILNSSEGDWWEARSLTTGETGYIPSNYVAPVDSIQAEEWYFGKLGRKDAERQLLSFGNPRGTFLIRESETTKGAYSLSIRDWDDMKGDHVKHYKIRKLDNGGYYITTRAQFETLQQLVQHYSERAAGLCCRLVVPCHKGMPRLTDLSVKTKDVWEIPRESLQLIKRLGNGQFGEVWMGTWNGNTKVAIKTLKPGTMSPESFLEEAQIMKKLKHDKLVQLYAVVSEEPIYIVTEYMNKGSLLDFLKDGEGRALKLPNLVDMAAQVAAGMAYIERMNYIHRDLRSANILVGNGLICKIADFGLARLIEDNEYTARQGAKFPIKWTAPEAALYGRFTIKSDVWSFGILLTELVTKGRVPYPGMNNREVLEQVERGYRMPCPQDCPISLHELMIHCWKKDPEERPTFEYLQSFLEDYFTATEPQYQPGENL

Sequence | phosphorylation enrichment
NSRFTCKLEVK [USH2A_Y3747_Y3747C_YF] | 0.378
PCLLRYLQLDF [ASB10_Y457_R453C] | 0.497
SLKAFYGEDAK [ALDH3A1_Y272_E270A] | 0.416
RFLRGYQQDAY [HLA-A_Y137_R138Q] | 0.349
HTLIKYTDGDQ [PUS7L_Y94] | 1.89
DPGVSYCTREE [PDHA1_Y301_R302C] | 0.606
DNAYQYMLTDR [MYH7_Y164] | 0.658
RVAFQYGVTDL [MYBPC3_Y340_I336V] | 0.49
RKGIRYLTSGL [PIGA_Y82] | 0.434
FEEDSYSHIMA [FDPS_Y388_YF] | 0.634
EQFELHCEMGS [CBL_Y371_Y371H_YF] | 0.523
CTTIHYNHMCN [TP53_Y234_Y236H] | 0.455
AKNKDYMSIIR [GNE_Y197] | 0.409
LIPIKYKAMKK [MYD88_Y257] | 0.489
INPIIYAFVGG [CCR5_Y297_E302G] | 6.26
NTQRPHFKGGG [TYROBP_Y111_Y111H_YF] | 0.286

target: c-Src SH2; test: SH2 binding enrichment of the phosphorylated peptide, bacterial display (enrichment ratio); higher = better substrate or ligand; peptides without Tyr show the background

Sequence | SH2 binding enrichment
NSRFTCKLEVK [USH2A_Y3747_Y3747C_YF] | 0.395
PCLLRYLQLDF [ASB10_Y457_R453C] | 1.26
SLKAFYGEDAK [ALDH3A1_Y272_E270A] | 0.68
RFLRGYQQDAY [HLA-A_Y137_R138Q] | 0.43
HTLIKYTDGDQ [PUS7L_Y94] | 0.464
DPGVSYCTREE [PDHA1_Y301_R302C] | 0.581
DNAYQYMLTDR [MYH7_Y164] | 1.34
RVAFQYGVTDL [MYBPC3_Y340_I336V] | 0.545
RKGIRYLTSGL [PIGA_Y82] | 0.399
FEEDSYSHIMA [FDPS_Y388_YF] | 0.864
EQFELHCEMGS [CBL_Y371_Y371H_YF] | 0.606
CTTIHYNHMCN [TP53_Y234_Y236H] | 1.7
AKNKDYMSIIR [GNE_Y197] | 0.774
LIPIKYKAMKK [MYD88_Y257] | 0.602
INPIIYAFVGG [CCR5_Y297_E302G] | 0.491
NTQRPHFKGGG [TYROBP_Y111_Y111H_YF] | 0.925

target: Grb2 SH2 (UniProt P62993); test: as above
Sequence (P62993 whole entry, looked up): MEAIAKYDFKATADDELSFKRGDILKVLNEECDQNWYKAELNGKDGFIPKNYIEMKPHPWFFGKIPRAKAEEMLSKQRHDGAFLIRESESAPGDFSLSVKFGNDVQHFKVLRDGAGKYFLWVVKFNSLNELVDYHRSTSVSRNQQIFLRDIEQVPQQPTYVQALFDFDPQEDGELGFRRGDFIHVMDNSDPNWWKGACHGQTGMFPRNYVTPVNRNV

Sequence | SH2 binding enrichment
NSRFTCKLEVK [USH2A_Y3747_Y3747C_YF] | 0.768
PCLLRYLQLDF [ASB10_Y457_R453C] | 1.12
SLKAFYGEDAK [ALDH3A1_Y272_E270A] | 0.891
RFLRGYQQDAY [HLA-A_Y137_R138Q] | 0.631
HTLIKYTDGDQ [PUS7L_Y94] | 0.914
DPGVSYCTREE [PDHA1_Y301_R302C] | 1.08
DNAYQYMLTDR [MYH7_Y164] | 0.7
RVAFQYGVTDL [MYBPC3_Y340_I336V] | 0.697
RKGIRYLTSGL [PIGA_Y82] | 1.05
FEEDSYSHIMA [FDPS_Y388_YF] | 0.718
EQFELHCEMGS [CBL_Y371_Y371H_YF] | 0.707
CTTIHYNHMCN [TP53_Y234_Y236H] | 1.22
AKNKDYMSIIR [GNE_Y197] | 0.9
LIPIKYKAMKK [MYD88_Y257] | 0.908
INPIIYAFVGG [CCR5_Y297_E302G] | 0.746
NTQRPHFKGGG [TYROBP_Y111_Y111H_YF] | 1.22

target: SHP2-C SH2; test: as above

Sequence | SH2 binding enrichment
NSRFTCKLEVK [USH2A_Y3747_Y3747C_YF] | 0.612
PCLLRYLQLDF [ASB10_Y457_R453C] | 1.26
SLKAFYGEDAK [ALDH3A1_Y272_E270A] | 0.663
RFLRGYQQDAY [HLA-A_Y137_R138Q] | 0.713
HTLIKYTDGDQ [PUS7L_Y94] | 0.606
DPGVSYCTREE [PDHA1_Y301_R302C] | 0.968
DNAYQYMLTDR [MYH7_Y164] | 0.664
RVAFQYGVTDL [MYBPC3_Y340_I336V] | 0.432
RKGIRYLTSGL [PIGA_Y82] | 0.709
FEEDSYSHIMA [FDPS_Y388_YF] | 0.479
EQFELHCEMGS [CBL_Y371_Y371H_YF] | 0.685
CTTIHYNHMCN [TP53_Y234_Y236H] | 1.24
AKNKDYMSIIR [GNE_Y197] | 0.879
LIPIKYKAMKK [MYD88_Y257] | 0.974
INPIIYAFVGG [CCR5_Y297_E302G] | 0.57
NTQRPHFKGGG [TYROBP_Y111_Y111H_YF] | 0.956
